Reference: patent US20180325981A1 (published 2018)
Square brackets hold non-standard residues; d marks the D form. Nva = CCC[C@H](N)C(=O)O

T1: purified recombinant ADIPOR1 (A88) (UniProt Q96A54 89-375)
T1 construct: range 89-375; Expressed in SF9 cells by baculovirus, solubilised in DDM, purified on anti-Flag beads (eluted with Flag peptide) and by size exclusion as monomer; amine-coupled to a CM5 chip; also called adiponectin receptor 1; adiponectin receptor ADIPOR1; not shown: Flag tag at the N-terminus
T1 sequence: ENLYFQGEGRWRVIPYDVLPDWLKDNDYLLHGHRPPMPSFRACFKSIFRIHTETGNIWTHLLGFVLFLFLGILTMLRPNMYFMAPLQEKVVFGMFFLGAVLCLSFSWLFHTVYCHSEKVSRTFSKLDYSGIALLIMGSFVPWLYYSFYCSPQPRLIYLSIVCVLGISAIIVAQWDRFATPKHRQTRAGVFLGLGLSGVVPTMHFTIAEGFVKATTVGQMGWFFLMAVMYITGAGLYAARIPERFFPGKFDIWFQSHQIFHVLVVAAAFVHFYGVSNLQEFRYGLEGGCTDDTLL

B1: reference peptide ADP355 (peptide)
peptide: H-[dN]IP[Nva]LY[dS]FA[dS]-NH2
SMILES: CCC[C@H](NC(=O)[C@@H]1CCCN1C(=O)[C@@H](NC(=O)[C@H](N)CC(N)=O)[C@@H](C)CC)C(=O)N[C@@H](CC(C)C)C(=O)N[C@@H](Cc1ccc(O)cc1)C(=O)N[C@H](CO)C(=O)N[C@@H](Cc1ccccc1)C(=O)N[C@@H](C)C(=O)N[C@H](CO)C(N)=O
B2: 3-3 (peptide)
peptide: NIPGLWYFAY
notes: 3rd round synthetic peptide; also called peptide 3-3
B3: 3-4 (peptide)
peptide: NIPGLFYFAY
notes: 3rd round synthetic peptide; also called peptide 3-4
B4: peptide 3-1 (peptide)
peptide: YYFAYHPNIPGLYYF
notes: Synthetic 3rd round agonist peptide designed for the adiponectin receptor

What was measured:
[1] = molecular target: purified recombinant ADIPOR1 (A88) (UniProt Q96A54); test: SPR, immobilised ADIPOR1
[2] = molecular target: T1, purified recombinant ADIPOR1 (A88); test: SPR; recombinant ADIPOR1 amine-coupled to a CM5 chip, peptide injected
Protocol: (§1) In order to analyze the binding force between peptide and ADIPOR1, a purified recombinant ADIPOR1 (A88) was bound to a CM5 chip with 3000 RU or higher through amine coupling. Peptide was diluted with a running buffer (0.1% DDM, 0.005% CHS, 10 mM HEPES, 150 mM NaCl with pH 7.4) and injected into a SPR instrument at various concentrations to analyze the binding force. The affinity value was calculated using the affinity fitting or kinetics fitting method. In order to analyze peptide solubility, peptide stocks were prepared with DMSO, diluted in an appropriate buffer, and then undissolved precipitates were removed. The peptide concentrations were calculated by measuring the […] and A280 absorbance of each peptide.

[3] = molecular target: T1, purified recombinant ADIPOR1 (A88); test: SPR, ADIPOR1 amine-coupled to CM5 chip, peptide injected
Protocol: as §1
With reference to FIGS. 3 and 4, surface plasmon resonance (SPR) experiments were performed in the present invention to measure the dissociation constant between the agonist peptide and the adiponectin receptor, particularly adiponectin receptor 1 (ADIPOR1). First, an expressed and purified adiponectin receptor ADIPOR1 was immobilized and its dissociation constant from candidate peptides was measured over a total of 4 rounds.

Binder | Kd [2] [µM] | Kd [3] [µM] | also measured
B1 |  |  | Kd [1]: > 100 µM
B2 | 30.7 |  | 
B3 | 23.2 |  | 
B4 |  | ≤ 16 | 
WYFAYHPNIPGLWYF (Synthetic 4th round agonist peptide) [peptide 4-3] |  | 6 to 10 | 
FYFAYHPNIPGLFYF (Synthetic 4th round agonist peptide) [peptide 4-4] |  | 2 to 4.3 | 
